Results from US20220411483A1 (Chugai, published 2022).

T1: FcgRIIaR (human, UniProt P12318 34-217)
T1 construct: extracellular domain; also called FcγRIIa R type; FcγRIIa (R type)
T1 sequence (looked up): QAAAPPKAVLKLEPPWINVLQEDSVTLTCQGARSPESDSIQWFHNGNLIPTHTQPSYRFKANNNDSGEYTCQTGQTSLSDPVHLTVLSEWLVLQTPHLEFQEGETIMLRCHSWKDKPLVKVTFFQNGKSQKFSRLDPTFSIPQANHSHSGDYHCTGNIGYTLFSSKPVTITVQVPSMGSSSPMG

T2: FcgRIIb (human, UniProt P31994 43-217)
T2 construct: extracellular domain; also called FcγRIIb
T2 sequence (looked up): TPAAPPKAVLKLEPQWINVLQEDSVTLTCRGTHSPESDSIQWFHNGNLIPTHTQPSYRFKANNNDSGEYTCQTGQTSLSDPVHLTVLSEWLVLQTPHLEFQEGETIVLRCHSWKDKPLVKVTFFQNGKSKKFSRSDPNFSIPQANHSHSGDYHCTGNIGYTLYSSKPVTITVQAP

B1: IL6R-P777/IL6R-L (antibody, human IgG1, kappa)
heavy: QVQLQESGPGLVKPSETLSLTCAVSGHSISHDHAWSWVRQPPGEGLEWIGFISYSGITNYNPSLQGRVTISRDNSKNTLYLQMNSLRAEDTAVYYCARSLARTTAMDYWGEGTLVTVSSASTKGPSVFPLAPSSKSTSGGTAALGCLVKDYFPEPVTVSWNSGALTSGVHTFPAVLQSSGLYSLSSVVTVPSSSLGTQTYICNVNHKPSNTKVDKKVEPKSCDKTHTCPPCPAPDLLGGDSVFLFPPKPKDTLMISRTPEVTCVVIDVAEEDGEVKFNWYVDGVEVHNAKTKPREEQYNSTYRVVSVLTVLHQDWLNGKEYKCAVSNKALPAPIEKTISKAKGQPREPQVYTLPPSRDELTKNQVSLTCLVKGFYPSDIAVEWESNGQPENNYKTTPPVLDSDGSFFLYSKLTVDKSRWQQGNVFSCSVMHEALHNHYTQKSLSLSP
light: not shown
B2: IL6R-P784/IL6R-L (antibody, human IgG1, kappa)
heavy: QVQLQESGPGLVKPSETLSLTCAVSGHSISHDHAWSWVRQPPGEGLEWIGFISYSGITNYNPSLQGRVTISRDNSKNTLYLQMNSLRAEDTAVYYCARSLARTTAMDYWGEGTLVTVSSASTKGPSVFPLAPSSKSTSGGTAALGCLVKDYFPEPVTVSWNSGALTSGVHTFPAVLQSSGLYSLSSVVTVPSSSLGTQTYICNVNHKPSNTKVDKKVEPKSCDKTHTCPPCPAPDLLGDDSVFLFPPKPKDTLMISRTPEVTCVVVDVSHEDPEVKFNWYVDGVEVHNAKTKPREEQYNSTYRVVSVLTVLHQDWLNGKEYKCKVSNKGLPSSIEKTISKAKGQPREPQVYTLPPSRDELTKNQVSLTCLVKGFYPSDIAVEWESNGQPENNYKTTPPVLDSDGSFFLYSKLTVDKSRWQQGNVFSCSVMHEALHNHYTQKSLSLSP
light: not shown
B3: IL6R-P779/IL6R-L (antibody, human IgG1, kappa)
heavy: QVQLQESGPGLVKPSETLSLTCAVSGHSISHDHAWSWVRQPPGEGLEWIGFISYSGITNYNPSLQGRVTISRDNSKNTLYLQMNSLRAEDTAVYYCARSLARTTAMDYWGEGTLVTVSSASTKGPSVFPLAPSSKSTSGGTAALGCLVKDYFPEPVTVSWNSGALTSGVHTFPAVLQSSGLYSLSSVVTVPSSSLGTQTYICNVNHKPSNTKVDKKVEPKSCDKTHTCPPCPAPELLGGDSVFLFPPKPKDTLMISRTPEVTCVVIDVAEEDGEVKFNWYVDGVEVHNAKTKPREEQYNSTYRVVSVLTVLHQDWLNGKEYKCAVSNKALPAPIEKTISKAKGQPREPQVYTLPPSRDELTKNQVSLTCLVKGFYPSDIAVEWESNGQPENNYKTTPPVLDSDGSFFLYSKLTVDKSRWQQGNVFSCSVMHEALHNHYTQKSLSLSP
light: not shown
B4: IL6R-P780/IL6R-L (antibody, human IgG1, kappa)
heavy: QVQLQESGPGLVKPSETLSLTCAVSGHSISHDHAWSWVRQPPGEGLEWIGFISYSGITNYNPSLQGRVTISRDNSKNTLYLQMNSLRAEDTAVYYCARSLARTTAMDYWGEGTLVTVSSASTKGPSVFPLAPSSKSTSGGTAALGCLVKDYFPEPVTVSWNSGALTSGVHTFPAVLQSSGLYSLSSVVTVPSSSLGTQTYICNVNHKPSNTKVDKKVEPKSCDKTHTCPPCPAPELLGGDSVFLFPPKPKDTLMISRTPEVTCVVIDVAEEDGEVKFNWYVDGVEVHNAKTKPREEQYNSTYRVVSVLTVLHQDWLNGKEYKCEVSNKALPAPIEKTISKAKGQPREPQVYTLPPSRDELTKNQVSLTCLVKGFYPSDIAVEWESNGQPENNYKTTPPVLDSDGSFFLYSKLTVDKSRWQQGNVFSCSVMHEALHNHYTQKSLSLSP
light: not shown
B5: IL6R-P781/IL6R-L (antibody, human IgG1, kappa)
heavy: QVQLQESGPGLVKPSETLSLTCAVSGHSISHDHAWSWVRQPPGEGLEWIGFISYSGITNYNPSLQGRVTISRDNSKNTLYLQMNSLRAEDTAVYYCARSLARTTAMDYWGEGTLVTVSSASTKGPSVFPLAPSSKSTSGGTAALGCLVKDYFPEPVTVSWNSGALTSGVHTFPAVLQSSGLYSLSSVVTVPSSSLGTQTYICNVNHKPSNTKVDKKVEPKSCDKTHTCPPCPAPELLGGDSVFLFPPKPKDTLMISRTPEVTCVVVDVSHEDPEVKFNWYVDGVEVHNAKTKPREEQYNATYRVVSVLTVLHQDWLNGKEYKCKVSNKGLPSSIEKTISKAKGQPREPQVYTLPPSRDELTKNQVSLTCLVKGFYPSDIAVEWESNGQPENNYKTTPPVLDSDGSFFLYSKLTVDKSRWQQGNVFSCSVMHEALHNHYTQKSLSLSP
light: not shown
B6: IL6R-P778/IL6R-L (antibody, human IgG1, kappa)
heavy: QVQLQESGPGLVKPSETLSLTCAVSGHSISHDHAWSWVRQPPGEGLEWIGFISYSGITNYNPSLQGRVTISRDNSKNTLYLQMNSLRAEDTAVYYCARSLARTTAMDYWGEGTLVTVSSASTKGPSVFPLAPSSKSTSGGTAALGCLVKDYFPEPVTVSWNSGALTSGVHTFPAVLQSSGLYSLSSVVTVPSSSLGTQTYICNVNHKPSNTKVDKKVEPKSCDKTHTCPPCPAPDLLGGDSVFLFPPKPKDTLMISRTPEVTCVVIDVAEEDGEVKFNWYVDGVEVHNAKTKPREEQYNSTYRVVSVLTVLHQDWLNGKEYKCEVSNKALPAPIEKTISKAKGQPREPQVYTLPPSRDELTKNQVSLTCLVKGFYPSDIAVEWESNGQPENNYKTTPPVLDSDGSFFLYSKLTVDKSRWQQGNVFSCSVMHEALHNHYTQKSLSLSP
light: not shown
notes: also called IL6B-P778/IL6R-L
B7: IL6R-P782/IL6R-L (antibody, human IgG1, kappa)
heavy: QVQLQESGPGLVKPSETLSLTCAVSGHSISHDHAWSWVRQPPGEGLEWIGFISYSGITNYNPSLQGRVTISRDNSKNTLYLQMNSLRAEDTAVYYCARSLARTTAMDYWGEGTLVTVSSASTKGPSVFPLAPSSKSTSGGTAALGCLVKDYFPEPVTVSWNSGALTSGVHTFPAVLQSSGLYSLSSVVTVPSSSLGTQTYICNVNHKPSNTKVDKKVEPKSCDKTHTCPPCPAPDLLGGDSVFLFPPKPKDTLMISRTPEVTCVVVDVSHEDPEVKFNWYVDGVEVHNAKTKPREEQYNSTYRVVSVLTVLHQDWLNGKEYKCKVSNKGLPSSIEKTISKAKGQPREPQVYTLPPSRDELTKNQVSLTCLVKGFYPSDIAVEWESNGQPENNYKTTPPVLDSDGSFFLYSKLTVDKSRWQQGNVFSCSVMHEALHNHYTQKSLSLSP
light: not shown
B8: IL6R-P785/IL6R-L (antibody, human IgG1, kappa)
heavy: QVQLQESGPGLVKPSETLSLTCAVSGHSISHDHAWSWVRQPPGEGLEWIGFISYSGITNYNPSLQGRVTISRDNSKNTLYLQMNSLRAEDTAVYYCARSLARTTAMDYWGEGTLVTVSSASTKGPSVFPLAPSSKSTSGGTAALGCLVKDYFPEPVTVSWNSGALTSGVHTFPAVLQSSGLYSLSSVVTVPSSSLGTQTYICNVNHKPSNTKVDKKVEPKSCDKTHTCPPCPAPDLLGGDSVFLFPPKPKDTLMISRTPEVTCVVVDVSHEDPEVKFNWYVDGVEVHNAKTKPREEQYNATYRVVSVLTVLHQDWLNGKEYKCKVSNKGLPSSIEKTISKAKGQPREPQVYTLPPSRDELTKNQVSLTCLVKGFYPSDIAVEWESNGQPENNYKTTPPVLDSDGSFFLYSKLTVDKSRWQQGNVFSCSVMHEALHNHYTQKSLSLSP
light: not shown
B9: IL6R-P783/IL6R-L (antibody, human IgG1, kappa)
heavy: QVQLQESGPGLVKPSETLSLTCAVSGHSISHDHAWSWVRQPPGEGLEWIGFISYSGITNYNPSLQGRVTISRDNSKNTLYLQMNSLRAEDTAVYYCARSLARTTAMDYWGEGTLVTVSSASTKGPSVFPLAPSSKSTSGGTAALGCLVKDYFPEPVTVSWNSGALTSGVHTFPAVLQSSGLYSLSSVVTVPSSSLGTQTYICNVNHKPSNTKVDKKVEPKSCDKTHTCPPCPAPELLGDDSVFLFPPKPKDTLMISRTPEVTCVVVDVSHEDPEVKFNWYVDGVEVHNAKTKPREEQYNSTYRVVSVLTVLHQDWLNGKEYKCKVSNKGLPSSIEKTISKAKGQPREPQVYTLPPSRDELTKNQVSLTCLVKGFYPSDIAVEWESNGQPENNYKTTPPVLDSDGSFFLYSKLTVDKSRWQQGNVFSCSVMHEALHNHYTQKSLSLSP
light: not shown

What was measured:
FcgRIIaR = biological target: T1, FcgRIIaR; experiment: SPR, amount bound per captured antibody
FcgRIIb = biological target: T2, FcgRIIb; experiment: SPR, amount bound per captured antibody
human complement C1q = biological target: T3, human complement C1q (human, UniProt P02745 23-245; P02746 28-253; P02747 29-245); experiment: SPR, C1q bound per antibody captured on Protein L
T3 construct: Bought (PROSPEC or Calbiochem); also called human C1q
T3 sequence (P02745 23-245 limits assumed, chain 1 of 3): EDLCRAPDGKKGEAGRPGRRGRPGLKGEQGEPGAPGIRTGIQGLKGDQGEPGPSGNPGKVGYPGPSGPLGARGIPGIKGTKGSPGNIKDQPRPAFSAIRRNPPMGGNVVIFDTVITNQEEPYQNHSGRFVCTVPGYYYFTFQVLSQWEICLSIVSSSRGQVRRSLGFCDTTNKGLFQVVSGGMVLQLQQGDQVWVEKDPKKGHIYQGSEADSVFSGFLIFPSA
T3 sequence (P02746 28-253 limits assumed, chain 2 of 3): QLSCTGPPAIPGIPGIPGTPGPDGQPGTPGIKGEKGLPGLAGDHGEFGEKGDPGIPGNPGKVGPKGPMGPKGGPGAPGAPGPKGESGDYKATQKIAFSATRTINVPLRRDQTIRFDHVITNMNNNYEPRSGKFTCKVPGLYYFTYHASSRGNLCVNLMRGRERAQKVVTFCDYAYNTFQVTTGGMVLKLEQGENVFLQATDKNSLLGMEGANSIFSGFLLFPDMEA
T3 sequence (P02747 29-245 limits assumed, chain 3 of 3): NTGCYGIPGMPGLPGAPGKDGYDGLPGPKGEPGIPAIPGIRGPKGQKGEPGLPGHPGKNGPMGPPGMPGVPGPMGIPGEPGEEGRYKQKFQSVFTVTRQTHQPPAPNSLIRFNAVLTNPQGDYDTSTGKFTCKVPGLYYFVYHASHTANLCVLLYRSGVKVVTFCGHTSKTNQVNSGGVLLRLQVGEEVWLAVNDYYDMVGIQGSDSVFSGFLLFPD
Outline: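 Antibodies captured on Protein L immobilized on a CM4 chip were exposed to human C1q diluted in HBS-EP+ running buffer at 25° C. C1q binding was normalized as C1q bound divided by antibody captured. The surface was regenerated with 10 mM glycine-HCl, pH 1.5.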

| Binder | Relative FcgRIIaR-binding Activity (FcgRIIaR) [IL6R-G1d/IL6R-L=100] | Relative FcgRIIb-binding Activity (FcgRIIb) [IL6R-G1d/IL6R-L=100] | Amount of C1q-binding when that for G1d is Defined as 100 (human complement C1q) [G1d=100] |
| --- | --- | --- | --- |
| B1 | 97.5 | 198 | 12.4 |
| B2 | 28.6 | 118 | 24.2 |
| B3 | 96 | 201 | 0.8 |
| B4 | 101 | 200 | 12.9 |
| B5 | 7.8 | 51.1 | 24 |
| B6 | 105 | 198 | 23.9 |
| B7 | 14.2 | 95.1 | 1.3 |
| B8 | 9.1 | 58.4 | 1.3 |
| B9 | 20.5 | 97.9 | 13.3 |
